Data as given in PMC5717350, “The human CTF4-orthologue AND-1 interacts with DNA polymerase α/primase via its unique C-terminal HMG box” (Open Biology, 2017).
Residue numbers refer to the chain shown, from its start.

T1: GST-BNTD (B subunit amino acids 1–78) (human, UniProt Q14181 1-78)
T1 construct: human DNA polymerase α B subunit, residues 1-78 (four-helix bundle N-terminal domain); also called GST-B(1–78); B N-terminal domain; source: E. coli Rosetta2(DE3), purified (Ni-NTA agarose)
T1 sequence (looked up): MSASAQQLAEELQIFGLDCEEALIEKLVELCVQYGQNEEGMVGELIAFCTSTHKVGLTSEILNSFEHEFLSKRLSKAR

T2: GST-BNTD (1–78) A47E (human, UniProt Q14181 1-78, A47E)
T2 construct: human DNA polymerase α B subunit, residues 1-78; also called A47E mutant GST-BNTD; source: E. coli Rosetta2(DE3), purified (Ni-NTA agarose)
T2 sequence (looked up): T1 sequence (looked up) with A47E

B1: Full-length His10-myc-tagged AND-1 (1–1129) (natural protein, human, UniProt O75717 1-1129, looked up)
chain: MPATRKPMRYGHTEGHTEVCFDDSGSFIVTCGSDGDVRIWEDLDDDDPKFINVGEKAYSCALKSGKLVTAVSNNTIQVHTFPEGVPDGILTRFTTNANHVVFNGDGTKIAAGSSDFLVKIVDVMDSSQQKTFRGHDAPVLSLSFDPKDIFLASASCDGSVRVWQISDQTCAISWPLLQKCNDVINAKSICRLAWQPKSGKLLAIPVEKSVKLYRRESWSHQFDLSDNFISQTLNIVTWSPCGQYLAAGSINGLIIVWNVETKDCMERVKHEKGYAICGLAWHPTCGRISYTDAEGNLGLLENVCDPSGKTSSSKVSSRVEKDYNDLFDGDDMSNAGDFLNDNAVEIPSFSKGIINDDEDDEDLMMASGRPRQRSHILEDDENSVDISMLKTGSSLLKEEEEDGQEGSIHNLPLVTSQRPFYDGPMPTPRQKPFQSGSTPLHLTHRFMVWNSIGIIRCYNDEQDNAIDVEFHDTSIHHATHLSNTLNYTIADLSHEAILLACESTDELASKLHCLHFSSWDSSKEWIIDLPQNEDIEAICLGQGWAAAATSALLLRLFTIGGVQKEVFSLAGPVVSMAGHGEQLFIVYHRGTGFDGDQCLGVQLLELGKKKKQILHGDPLPLTRKSYLAWIGFSAEGTPCYVDSEGIVRMLNRGLGNTWTPICNTREHCKGKSDHYWVVGIHENPQQLRCIPCKGSRFPPTLPRPAVAILSFKLPYCQIATEKGQMEEQFWRSVIFHNHLDYLAKNGYEYEESTKNQATKEQQELLMKMLALSCKLEREFRCVELADLMTQNAVNLAIKYASRSRKLILAQKLSELAVEKAAELTATQVEEEEEEEDFRKKLNAGYSNTATEWSQPRFRNQVEEDAEDSGEADDEEKPEIHKPGQNSFSKSTNSSDVSAKSGAVTFSSQGRVNPFKVSASSKEPAMSMNSARSTNILDNMGKSSKKSTALSRTTNNEKSPIIKPLIPKPKPKQASAASYFQKRNSQTNKTEEVKEENLKNVLSETPAICPPQNTENQRPKTGFQMWLEENRSNILSDNPDFSDEADIIKEGMIRFRVLSTEERKVWANKAKGETASEGTEAKKRKRVVDESDETENQEEKAKENLNLSKKQKPLDFSTNQKLSAFAFKQE
notes: the oligomeric state was measured only on the SepB constructs; also called His-myc-AND-1; human CTF4-orthologue AND-1; source: Sf9 insect cells (baculovirus, MultiBac), purified (Ni-NTA, Q-Sepharose)
B2: MBP-tagged AND-1 HMG box (1017–1076), wild type (domain or fragment, human, UniProt O75717 1017-1076, looked up)
chain: RPKTGFQMWLEENRSNILSDNPDFSDEADIIKEGMIRFRVLSTEERKVWANKAKGETASE
notes: human AND-1 HMG box, residues 1017-1076; also called AND-1(1017–1076); source: E. coli Rosetta2(DE3), purified (Ni-NTA, Superdex 200)
B3: B (1–78), free BNTD used as competitor (domain or fragment, human, UniProt Q14181 1-78, looked up)
chain: T1 sequence (looked up)
notes: human DNA polymerase α B subunit, residues 1-78; it names the protein 'B (1–78)' and 'free BNTD'; also called purified BNTD; source: E. coli Rosetta2(DE3), purified
B4: AND-1 (329–826), SepB domain (domain or fragment, human, UniProt O75717 329-826, looked up)
chain: GDDMSNAGDFLNDNAVEIPSFSKGIINDDEDDEDLMMASGRPRQRSHILEDDENSVDISMLKTGSSLLKEEEEDGQEGSIHNLPLVTSQRPFYDGPMPTPRQKPFQSGSTPLHLTHRFMVWNSIGIIRCYNDEQDNAIDVEFHDTSIHHATHLSNTLNYTIADLSHEAILLACESTDELASKLHCLHFSSWDSSKEWIIDLPQNEDIEAICLGQGWAAAATSALLLRLFTIGGVQKEVFSLAGPVVSMAGHGEQLFIVYHRGTGFDGDQCLGVQLLELGKKKKQILHGDPLPLTRKSYLAWIGFSAEGTPCYVDSEGIVRMLNRGLGNTWTPICNTREHCKGKSDHYWVVGIHENPQQLRCIPCKGSRFPPTLPRPAVAILSFKLPYCQIATEKGQMEEQFWRSVIFHNHLDYLAKNGYEYEESTKNQATKEQQELLMKMLALSCKLEREFRCVELADLMTQNAVNLAIKYASRSRKLILAQKLSELAVEKAAELTAT
notes: human AND-1, residues 329-826 (SepB domain); residues 329-420 and 824-826 not in the final crystallographic model; Trimer arises from crystallographic symmetry (one protomer per asymmetric unit); also called AND-1 SepB
B5: GST-B subunit (1–156) (domain or fragment, human, UniProt Q14181 1-156, looked up)
chain: MSASAQQLAEELQIFGLDCEEALIEKLVELCVQYGQNEEGMVGELIAFCTSTHKVGLTSEILNSFEHEFLSKRLSKARHSTCKDSGHAGARDIVSIQELIEVEEEEEILLNSYTTPSKGSQKRAISTPETPLTKRSVSTRSPHQLLSPSSFSPSAT
notes: human DNA polymerase α B subunit, residues 1-156; also called GST-B fusion protein 1–156; source: E. coli Rosetta2(DE3), purified (Ni-NTA agarose)
B6: GST-B subunit (1–104) (domain or fragment, human, UniProt Q14181 1-104, looked up)
chain: MSASAQQLAEELQIFGLDCEEALIEKLVELCVQYGQNEEGMVGELIAFCTSTHKVGLTSEILNSFEHEFLSKRLSKARHSTCKDSGHAGARDIVSIQELIEVEE
notes: human DNA polymerase α B subunit, residues 1-104; also called GST-B fusion protein 1–104; source: E. coli Rosetta2(DE3), purified (Ni-NTA agarose)

Legend:
[1] = target: T3, Pol α/primase, full-length heterotetrameric complex (Polα-B-PriS-PriL) (human, UniProt P09884 1-1462; Q14181 1-598; P49642 1-420; P49643 1-509); experiment: pull-down; StrepII-tagged Pol α/primase bound to 100 µl Strep-Tactin Superflow resin, about 2.4 nmol AND-1 added as prey; PD buffer (PBS, 5% glycerol, 0.5 mM TCEP, 0.2% Igepal), 2.5 mg/ml BSA, 4°C; eluted with 10 mM desthiobiotin; Coomassie and anti-His western blot; conditions: both partners purified
T3 construct: human DNA polymerase α catalytic subunit, residues 1-1462; human DNA polymerase α B subunit, residues 1-598; human primase small subunit PriS, residues 1-420; human primase large subunit PriL, residues 1-509; The wording 'Double StrepII-tagged human DNA polymerase α (1–1462) and its B subunit (1–598)' leaves open whether the B subunit is tagged too; the tag is written on Pol α only; also called …
T3 sequence (P09884 whole entry, chain 1 of 3, the tested form may be a part): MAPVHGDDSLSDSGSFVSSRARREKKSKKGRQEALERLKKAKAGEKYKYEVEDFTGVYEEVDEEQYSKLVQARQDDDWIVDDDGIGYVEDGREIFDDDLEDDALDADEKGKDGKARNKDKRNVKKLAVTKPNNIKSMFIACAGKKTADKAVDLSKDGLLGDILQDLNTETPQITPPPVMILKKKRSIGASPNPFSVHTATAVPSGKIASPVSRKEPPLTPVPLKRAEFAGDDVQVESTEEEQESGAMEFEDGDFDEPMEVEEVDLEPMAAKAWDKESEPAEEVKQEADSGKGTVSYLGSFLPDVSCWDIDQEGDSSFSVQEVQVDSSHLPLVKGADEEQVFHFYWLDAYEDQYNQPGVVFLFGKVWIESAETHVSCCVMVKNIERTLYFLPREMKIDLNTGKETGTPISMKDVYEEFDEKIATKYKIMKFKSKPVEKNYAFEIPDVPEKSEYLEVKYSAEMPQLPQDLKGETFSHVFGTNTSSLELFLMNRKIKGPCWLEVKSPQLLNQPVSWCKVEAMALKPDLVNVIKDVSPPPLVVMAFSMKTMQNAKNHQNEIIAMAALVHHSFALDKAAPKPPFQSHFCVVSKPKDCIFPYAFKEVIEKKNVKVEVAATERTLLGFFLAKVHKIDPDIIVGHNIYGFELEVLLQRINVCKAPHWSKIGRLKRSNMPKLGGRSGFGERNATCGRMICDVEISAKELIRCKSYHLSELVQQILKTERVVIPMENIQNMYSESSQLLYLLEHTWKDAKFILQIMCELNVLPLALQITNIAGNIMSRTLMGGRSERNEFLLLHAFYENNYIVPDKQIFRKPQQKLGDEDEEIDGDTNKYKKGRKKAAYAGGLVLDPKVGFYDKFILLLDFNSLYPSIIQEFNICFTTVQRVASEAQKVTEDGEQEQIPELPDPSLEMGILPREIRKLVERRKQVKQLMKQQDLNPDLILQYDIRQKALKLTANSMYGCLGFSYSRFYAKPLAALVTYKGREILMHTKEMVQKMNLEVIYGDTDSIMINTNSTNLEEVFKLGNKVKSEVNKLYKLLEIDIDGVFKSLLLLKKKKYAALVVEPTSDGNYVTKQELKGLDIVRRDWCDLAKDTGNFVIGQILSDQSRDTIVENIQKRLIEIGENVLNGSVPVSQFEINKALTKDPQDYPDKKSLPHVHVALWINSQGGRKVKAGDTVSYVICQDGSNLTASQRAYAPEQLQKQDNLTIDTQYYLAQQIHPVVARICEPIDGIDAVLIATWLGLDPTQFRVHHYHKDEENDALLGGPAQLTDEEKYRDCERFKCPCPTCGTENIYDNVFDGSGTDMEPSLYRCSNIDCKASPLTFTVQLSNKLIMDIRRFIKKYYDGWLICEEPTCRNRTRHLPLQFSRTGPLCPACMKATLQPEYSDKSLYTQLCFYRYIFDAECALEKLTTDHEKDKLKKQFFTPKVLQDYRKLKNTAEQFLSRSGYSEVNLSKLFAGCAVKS
T3 sequence (P49642 whole entry, chain 3 of 3, the tested form may be a part): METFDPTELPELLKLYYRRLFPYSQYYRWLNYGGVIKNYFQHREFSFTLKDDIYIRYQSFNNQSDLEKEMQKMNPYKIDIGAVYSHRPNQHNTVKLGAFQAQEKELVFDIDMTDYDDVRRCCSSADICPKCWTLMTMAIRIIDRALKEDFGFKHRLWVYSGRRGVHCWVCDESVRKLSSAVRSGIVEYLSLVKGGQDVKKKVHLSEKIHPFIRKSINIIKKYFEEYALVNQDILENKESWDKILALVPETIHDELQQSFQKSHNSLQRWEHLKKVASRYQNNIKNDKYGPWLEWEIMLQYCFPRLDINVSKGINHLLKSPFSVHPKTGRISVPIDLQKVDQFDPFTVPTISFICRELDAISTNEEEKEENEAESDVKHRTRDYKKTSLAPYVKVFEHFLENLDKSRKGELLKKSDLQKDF
T3 sequence (P49643 whole entry, chain 4 of 3, the tested form may be a part): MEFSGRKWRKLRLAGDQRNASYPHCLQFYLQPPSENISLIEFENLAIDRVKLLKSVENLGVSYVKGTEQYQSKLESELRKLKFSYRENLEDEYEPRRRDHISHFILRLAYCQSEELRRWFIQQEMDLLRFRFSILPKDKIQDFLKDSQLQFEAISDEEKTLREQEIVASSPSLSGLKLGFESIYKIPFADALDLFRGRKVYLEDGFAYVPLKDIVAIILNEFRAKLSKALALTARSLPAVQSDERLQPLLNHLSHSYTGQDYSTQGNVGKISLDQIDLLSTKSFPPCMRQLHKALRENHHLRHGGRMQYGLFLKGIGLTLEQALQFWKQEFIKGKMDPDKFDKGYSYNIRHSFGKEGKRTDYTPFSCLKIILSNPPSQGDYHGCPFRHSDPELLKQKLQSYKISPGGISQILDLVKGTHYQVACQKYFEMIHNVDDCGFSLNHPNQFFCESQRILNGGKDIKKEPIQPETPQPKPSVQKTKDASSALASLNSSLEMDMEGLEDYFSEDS

[2] = target: T1, GST-BNTD (B subunit amino acids 1–78); experiment: pull-down; MBP-AND-1 constructs bound to 100 µl amylose resin, 25 nmol GST-B added as prey; PD buffer, 2.5 mg/ml BSA, 4°C; eluted with 20 mM maltose; Coomassie; conditions: both partners purified
GST-BNTD (1–78) A47E = target: T2, GST-BNTD (1–78) A47E; experiment: as above; conditions: both partners purified
[3] = target: B1; experiment: pull-down; competition: Pol α/primase bound to 100 µl Strep-Tactin Superflow resin, 1 nmol AND-1 added together with 100 nmol B (1–78) or Pol α CIP peptide 156–170; eluted with 10 mM desthiobiotin; Coomassie and anti-His western blot; conditions: both partners purified
[4] = target: the molecule itself; experiment: crystal structure; AND-1 329–826 crystallised at 9 mg/ml; space group F432, one protomer per asymmetric unit, trimer by crystallographic symmetry; 2.5 Å
[5] = target: B1; experiment: pull-down; GST-B fusion proteins (in figure 6a also GST-Pol α CIP, equimolar) bound to 100 µl glutathione agarose, 2.2 nmol AND-1 (1–1129, 316–1129 or 336–826) added as prey; PD buffer, 2.5 mg/ml BSA, 4°C; Coomassie, anti-His western blot in figure 6a; conditions: both partners purified

B1: binds [1].

B2: binds [2]; binds (GST-BNTD (1–78) A47E).

B3: binds [3].

B4: binds [4].

B5: binds [5].

B6: binds [5].
